Measured values from the nanobody polyreactivity screen of Harvey et al. (2022).

Assay: yeast display, Sf9 membrane polyspecificity reagent, FACS + sequencing; frameworks hold sequencing errors
How it was run: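 Using colony PCR, genes from sorted yeast display clones were amplified, then sequenced on MiSeq at 2 × 250 and filtered by CDR length. The clones had been stained with 10% biotinylated, detergent-solubilized Sf9 membrane reagent for 1 hour at 4 °C and sorted by FACS into low and high (top ~1%) gates on anti-HA and streptavidin fluorescence. Polyreactivity labels come from the gate of origin.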

Sequence | polyreactivity (PSR sort gate)
QVQLVESGGGLVQAGGSLRLSCAASGRIFPWNPMGWYRQAPGKERELVAGINNGDRTYYADSVKGRFTISRDNAKNTVYLQMNSLKPEDTAVYYCAVDTWYFLFQYGYYQEGDYWGQGTQVTVSS | low polyreactivity
QVQLVESGGGLVQAGGSLRLSCAASGRIFPWYAMGWYRQAPGKERELVAAISWSGGRTYYADSVKGRFTISRDNAKNTVYLQMNSLKPEDTAVYYCAAERVTYTISYSYSYDYWGQGTQVTVSS | high polyreactivity
QVQLVESGGGLVQAGGSLRLSCAASGRIFPWYSMGWYRQAPGKERELVAAISSSGGRTYYADSVKGRFTISRDNAKNTVYLQMNSLKPVDTAVYYCAADRRYISQRTYNYWGQGTQVTVSS | high polyreactivity
QVQLVESGGGLVQAGGSLRLSCAASGRIFPWYTMGWYRQAPGKERELVATIRGSGGSTHYADSVKGRFTISRDNAKNTVYLQMNSLKPEDTAVYYCATDRPRYRYQYKFDYWGQGTQVTVSS | low polyreactivity
QVQLVESGGGLVQAGGSLRLSCAASGRIFPYNAMGWSRQAPGQERELVARIDSGGRTNYADSVKGRFTISRDNAKNTVYLQMNSLKPEDTAVYYCARVFSLARSWYRYYYWGQGTQVTVSS | high polyreactivity
QVQLVESGGGLVQAGGSLRLSCAASGRIFPYNAMGWYRQAPGKEREFVASIRTRGVSTYYADSVKGRFTISRDNAKNTVYLQMNSLKPEDTAVYYCNAQRPGYAKGPRYDYWGQGTQVTVSS | high polyreactivity
QVQLVESGGGLVQAGGSLRLSCAASGRIFPYNVMGWYRPATGKERELVAAISWSGGRTYYADSVKGRFTISRDNAKNTVYLQMISLKPEDTAVYYCNTRTLVAMGYWGQGTQVTVSS | high polyreactivity
QVQLVESGGGLVQAGGSLRLSCAASGRIFPYYAMGWSRQAPGKERELVAAISLSGGSTYYADSVKGRFTISRDNAKNTVYLQMNSLKPEDTAVYYCNAVASTYGYYWYPGLGYDYWGQGTQVTVSS | low polyreactivity
QVQLVESGGGLVQAGGSLRLSCAASGRIFPYYAMGWYRQAPGKERELVAAISRIGGRTYYADSVKGRFTISRDNAKNTVSLQMNSLKPEDTAVYYCAAGYGGTFNCGQGTQVTVSS | high polyreactivity
QVQLVESGGGLVQAGGSLRLSCAASGRIFPYYAMGWYRQAPGKERELVAAITARGGRTYYADSVKGRFSISRDNAKNTVYLQMNSLKPEETAVYYCNTGGRSGSPGYDYWGQGTQVTVSS | high polyreactivity
QVQLVESGGGLVQAGGSLRLSCAASGRIFPYYAMGWYRQAPGKERELVASTNYADSVKGRFTISRDNAKNTVYLQMNSLKPEDTAVYYCAADGYRYSVYLIRNPMDYWGQGTQVTVSS | low polyreactivity
QVQLVESGGGLVQAGGSLRLSCAASGRIFPYYAMGWYRQAPGKERELVATITWRGGITYYADSVKGRFTISRDNAKNTVYLQMNSLKPEDTAVYYCAVRKVYRSSFDYWGQGTQVTVSS | high polyreactivity
QVQLVESGGGLVQAGGSLRLSCAASGRIFPYYAMGWYRQEPGKEREFVAAISSSGDSTYYADSVKGRFTISRDNAKNTVYLQMNSLKPEDTPVYYCATRYRSSQWYSPYKYDYWGQGTQVTLSS | low polyreactivity
QVQLVESGGGLVQAGGSLRLSCAASGRIFPYYDMGWYRQAPGKEMELVATITWRGGITYYADSVKGRFTISRDNAKNTVYLQMNSLKPEDTAVYYCAVRKVYRSSFDYWGQGTQVTVSS | high polyreactivity
QVQLVESGGGLVQAGGSLRLSCAASGRIFPYYTMGWYRQAPGKERELVAAITSGGITYYADSVKGRFTISRDNAKNTVYLQMKSLKPEDTAVYSCAALHSGKYTRYKYGYWGQGTQVTVSS | high polyreactivity
QVQLVESGGGLVQAGGSLRLSCAASGRIFQANAMGWYRQAPGKERELVAAISWSGGSTYYADSVKGRFTISRDNAKNTVYLQMNSLKPEDTAVYYCAKDYVHQYGVYKVWANNYNYWGQGTQVTVSS | low polyreactivity
QVQLVESGGGLVQAGGSLRLSCAASGRIFQDNAMGWSRQAPGNERELVAAISKSGGITYYADSVKGRFTISRDNAKNTVYLQMNSLKPEDTAVYNCAAVWSRFLISYSTGWWFEYWGQGTQVTVSS | low polyreactivity
